Data set [1] in a line: Glucuronidation by pooled human liver microsomes (HLM), UDPGA-supplemented. As to conditions: probe substrate glucuronidation. The format is in vitro ADME. The method, then:
(§1) The reaction was terminated by adding ice-cold acetonitrile. […] All experiments were performed in triplicate.
(§2) The parameter were as follow. V is the formation rate of the product. Vmax is the maximal velocity. […] Ksi is the substrate inhibition constant. […] (1) V=Vmax ×[S]/Km+[S] (2) V=Vmax ×[S]/Km + [S](1+[S]/Ksi)

The next data set deals with T1, expressed human UGT1A1 (Homo sapiens, UniProt P22309).
T1 sequence (P22309 26-533): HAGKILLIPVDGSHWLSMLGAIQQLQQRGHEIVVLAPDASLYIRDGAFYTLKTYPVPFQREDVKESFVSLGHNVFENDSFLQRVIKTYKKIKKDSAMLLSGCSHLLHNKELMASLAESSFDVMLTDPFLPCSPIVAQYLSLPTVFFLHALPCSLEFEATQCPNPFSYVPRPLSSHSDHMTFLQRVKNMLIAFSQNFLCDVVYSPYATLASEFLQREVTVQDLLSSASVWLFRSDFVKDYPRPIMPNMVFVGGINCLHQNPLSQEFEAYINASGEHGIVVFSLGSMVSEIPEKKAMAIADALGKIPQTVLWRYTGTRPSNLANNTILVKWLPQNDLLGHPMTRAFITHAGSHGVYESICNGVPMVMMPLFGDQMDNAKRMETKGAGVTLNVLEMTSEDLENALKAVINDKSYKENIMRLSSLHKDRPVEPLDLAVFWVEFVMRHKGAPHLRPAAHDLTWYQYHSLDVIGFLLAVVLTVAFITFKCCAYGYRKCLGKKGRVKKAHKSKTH
In words: Glucuronidation by expressed UGT1A1. The method, then: as §1
The gradient elution program was the same as the UPLC condition of the structural identification of wushanicaritin glucuronides above. The detection wavelength was set at 270 nm, and the injection volume was 8 µL.
as §2
The contribution of individual expressed UGT enzymes to wushanicaritin glucuronidation in HLM was evaluated by the relative activity factor (RAF) approach as described in previous studies. The relative activity factor was defined as the activity ratio of HLM to an expressed UGT enzyme (Supersome) toward a probe substrate for this enzyme using Equation (3). The relative amount of wushanicaritin glucuronidation in HLM attributed to an expressed UGT enzyme was estimated by multiplying the glucuronidation activity (i.e., the intrinsic clearance) derived with this enzyme by the corresponding RAF. […] The contributions of individual UGT enzyme were calculated according to Equation (4). (3) RAF=CLint{probe,pHLM}/CLint{probe,Supersome} (4) Contribution of UGTs=CLint(wushanica ritin,UGTs)/CLint(wushanica ritin,pHLM)×RAF

On the set-up of data set [2]: method as in PMID 21968061. The following applies: DPPH radical scavenging (antioxidant activity); cited from earlier work.
Substrate in data set [3]: COc1ccc(-c2oc3c(CCC(C)(C)O)c(O)cc(O)c3c(=O)c2O)cc1
Nature of the data set: not read. As to conditions: pH 7.4.

Substrate in data set [4]: COc1ccc(-c2oc3c(CCC(C)(C)O)c(O)cc(O)c3c(=O)c2O)cc1
In words: Glucuronidation by expressed UGT1A7. The format is in vitro ADME, human. The following applies: pH 7.4. The method, then:
as §1, §2

Substrate in data set [5]: COc1ccc(-c2oc3c(CCC(C)(C)O)c(O)cc(O)c3c(=O)c2O)cc1
Nature of the data set: Glucuronidation by expressed UGT1A8. As to conditions: pH 7.4. The format is in vitro ADME, human. The method, then: as §1, §2

Substrate in data set [6]: COc1ccc(-c2oc3c(CCC(C)(C)O)c(O)cc(O)c3c(=O)c2O)cc1
In words: Glucuronidation by expressed UGT1A3. The format is in vitro ADME, human. The following applies: pH 7.4.

Substrate in data set [7]: C[C@H](CCC(=O)O)[C@H]1CC[C@H]2[C@@H]3[C@H](O)C[C@@H]4C[C@H](O)CC[C@]4(C)[C@H]3CC[C@]12C
Nature of the data set: not read. The following applies: other: probe substrate glucuronidation; UGT1A3; pH 7.4.

The mark [8] stands for this setting: other: formation of G1 (3-O-glucuronide), UGT2B7.
The mark [9] stands for this setting: other: formation of G2 (7-O-glucuronide), UGT2B7.
Setting [10] is: other: formation of G1 (3-O-glucuronide).
Where [11] appears, read: other: formation of G2 (7-O-glucuronide).
Setting [12] is: other: formation of G1 (3-O-glucuronide), UGT1A1.
Where [13] appears, read: other: formation of G2 (7-O-glucuronide), UGT1A1.

In general, Vmax refers to the top rate of the reaction or transport when substrate is in excess. For orientation: Km means the substrate concentration at which the rate is half of its maximum. For `C[C@]12CC[C@@H]3c4ccc(O)cc4CC[C@H]3[C@@H]1CC[C@@H]2O` [β-estradiol, reference compound], the Vmax in data set [1] is reported as 0.19 ± 0.09 nmol/min/mg. In addition, the Km on expressed human UGT1A1 worked out at 25.3 ± 4.28 µM.
By IC50 is commonly meant the concentration that gives 50% inhibition. As to `O=C1O[C@H]([C@@H](O)CO)C(O)=C1O` [vitamin C, reference compound], the IC50 in data set [2] was 32 µM.

B1: expressed human UGT2B7 (Homo sapiens) (protein)
chain: GKVLVWAAEYSHWMNIKTILDELIQRGHEVTVLASSASILFDPNNSSALKIEIYPTSLTKTELENFIMQQIKRWSDLPKDTFWLYFSQVQEIMSIFGDITRKFCKDVVSNKKFMKKVQESRFDVIFADAIFPCSELLAELFNIPFVYSLSFSPGYTFEKHSGGFIFPPSYVPVVMSELTDQMTFMERVKNMIYVLYFDFWFEIFDMKKWDQFYSEVLGRPTTLSETMGKADVWLIRNSWNFQFPYPLLPNVDFVGGLHCKPAKPLPKEMEDFVQSSGENGVVVFSLGSMVSNMTEERANVIASALAQIPQKVLWRFDGNKPDTLGLNTRLYKWIPQNDLLGHPKTRAFITHGGANGIYEAIYHGIPMVGIPLFADQPDNIAHMKARGAAVRVDFNTMSSTDLLNALKRVINDPSYKENVMKLSRIQHDQPVKPLDRAVFWIEFVMRHKGAKHLRVAAHDLTWFQYHSLDVIGFLLVCVATVIFIVTKCCLFCFWKFARKAKKGKND
B1: in “not read [3]” (setting [8]), the K0.5 came to 2.34 ± 0.19 µM, the Vmax was found to be 3e-05 µmol/min/mg and the Vmax/Km is 10 µL/min/mg. In “not read [3]” (setting [9]), the K0.5 was determined as 5.28 ± 0.98 µM, the Vmax is 1e-05 µmol/min/mg and the Vmax/Km is 2 µL/min/mg.

B2: expressed human UGT1A7 (Homo sapiens) (protein)
chain: GKLLVVPMDGSHWFTMQSVVEKLILRGHEVVVVMPEVSWQLGRSLNCTVKTYSTSYTLEDQDREFMVFADARWTAPLRSAFSLLTSSSNGIFDLFFSNCRSLFNDRKLVEYLKESCFDAVFLDPFDACGLIVAKYFSLPSVVFARGIFCHYLEEGAQCPAPLSYVPRLLLGFSDAMTFKERVWNHIMHLEEHLFCPYFFKNVLEIASEILQTPVTAYDLYSHTSIWLLRTDFVLEYPKPVMPNMIFIGGINCHQGKPVPMEFEAYINASGEHGIVVFSLGSMVSEIPEKKAMAIADALGKIPQTVLWRYTGTRPSNLANNTILVKWLPQNDLLGHPMTRAFITHAGSHGVYESICNGVPMVMMPLFGDQMDNAKRMETKGAGVTLNVLEMTSEDLENALKAVINDKSYKENIMRLSSLHKDRPVEPLDLAVFWVEFVMRHKGAPHLRPAAHDLTWYQYHSLDVIGFLLAVVLTVAFITFKCCAYGYRKCLGKKGRVKKAHKSKTH
notes: purchased Corning Biosciences
With B2, in data set [4] (setting [10]), the K0.5 amounted to 0.47 ± 0.03 µM, the Vmax worked out at 0.00017 µmol/min/mg and the Vmax/Km was determined as 360 µL/min/mg. In data set [4] (setting [11]), the K0.5 came out at 0.61 ± 0.08 µM, the Vmax worked out at 0.00023 µmol/min/mg and the Vmax/Km turned out to be 380 µL/min/mg.

B3: expressed human UGT1A8 (Homo sapiens) (protein)
chain: GKLLVVPMDGSHWFTMQSVVEKLILRGHEVVVVMPEVSWQLGKSLNCTVKTYSTSYTLEDLDREFMDFADAQWKAQVRSLFSLFLSSSNGFFNLFFSHCRSLFNDRKLVEYLKESSFDAVFLDPFDACGLIVAKYFSLPSVVFARGIACHYLEEGAQCPAPLSYVPRILLGFSDAMTFKERVRNHIMHLEEHLFCQYFSKNALEIASEILQTPVTAYDLYSHTSIWLLRTDFVLDYPKPVMPNMIFIGGINCHQGKPLPMEFEAYINASGEHGIVVFSLGSMVSEIPEKKAMAIADALGKIPQTVLWRYTGTRPSNLANNTILVKWLPQNDLLGHPMTRAFITHAGSHGVYESICNGVPMVMMPLFGDQMDNAKRMETKGAGVTLNVLEMTSEDLENALKAVINDKSYKENIMRLSSLHKDRPVEPLDLAVFWVEFVMRHKGAPHLRPAAHDLTWYQYHSLDVIGFLLAVVLTVAFITFKCCAYGYRKCLGKKGRVKKAHKSKTH
notes: purchased Corning Biosciences
On to B3, for which, in data set [5] (setting [10]), the K0.5 was 0.38 ± 0.03 µM, the maximum rate (Vmax) is 2e-05 µmol/min/mg and the Vmax/Km was determined as 50 µL/min/mg. Also, in data set [5] (setting [11]), the K0.5 is 0.58 ± 0.07 µM, the Vmax was determined as 7e-05 µmol/min/mg and the Vmax/Km came to 120 µL/min/mg.

B4: expressed human UGT1A1 (Homo sapiens) (protein)
chain: T1 sequence (P22309 26-533)
Turning to B4, in the data set “not read [3]” (setting [12]), the K0.5 is 0.98 ± 0.20 µM, the Vmax is 0.00113 µmol/min/mg and the Vmax/Km was 1160 µL/min/mg. Also, in the data set “not read [3]” (setting [13]), the K0.5 is 0.68 ± 0.08 µM, the Vmax amounted to 0.00011 µmol/min/mg and the Vmax/Km worked out at 160 µL/min/mg.

B5: expressed human UGT1A3 (Homo sapiens) (protein)
chain: GKVLVVPIDGSHWLSMREVLRELHARGHQAVVLTPEVNMHIKEENFFTLTTYAISWTQDEFDRHVLGHTQLYFETEHFLKKFFRSMAMLNNMSLVYHRSCVELLHNEALIRHLNATSFDVVLTDPVNLCAAVLAKYLSIPTVFFLRNIPCDLDFKGTQCPNPSSYIPRLLTTNSDHMTFMQRVKNMLYPLALSYICHAFSAPYASLASELFQREVSVVDILSHASVWLFRGDFVMDYPRPIMPNMVFIGGINCANRKPLSQEFEAYINASGEHGIVVFSLGSMVSEIPEKKAMAIADALGKIPQTVLWRYTGTRPSNLANNTILVKWLPQNDLLGHPMTRAFITHAGSHGVYESICNGVPMVMMPLFGDQMDNAKRMETKGAGVTLNVLEMTSEDLENALKAVINDKSYKENIMRLSSLHKDRPVEPLDLAVFWVEFVMRHKGAPHLRPAAHDLTWYQYHSLDVIGFLLAVVLTVAFITFKCCAYGYRKCLGKKGRVKKAHKSKTH
notes: purchased Corning Biosciences
B5: in data set [6] (setting [10]), the K0.5 amounted to 0.45 ± 0.04 µM, the Vmax is 0.00017 µmol/min/mg and the Vmax/Km came to 360 µL/min/mg. Besides, in data set [6] (setting [11]), the K0.5 is 0.61 ± 0.08 µM, the Vmax turned out to be 0.00023 µmol/min/mg and the Vmax/Km worked out at 380 µL/min/mg. For the same molecule, in the data set “not read [7]”, the Km is 10.90 ± 0.74 µM, the Vmax worked out at 0.0002 µmol/min/mg and the Vmax/Km is 18.5 µL/min/mg.

Values taken from publication PMC5618632, “In Vitro Glucuronidation of Wushanicaritin by Liver Microsomes, Intestine Microsomes and Expressed Human UDP-Glucuronosyltransferase Enzymes” (International Journal of Molecular Sciences, 2017).
